Key:
IGFBP-3 = assay: Serum IGFBP-3 levels in cynomolgus monkeys after a single antibody dose; format: in vivo, cynomolgus monkey; conditions: for serum IGFBP-3 levels (% change from baseline) / serum IGFBP-3 decrease below baseline: cynomolgus monkeys
Experimental: (§1) To determine if GHR antagonist monoclonal antibodies can affect IGF-1, IGFBP-3, and ALS levels in vivo by inhibiting the function of GHR, the effect of humanized anti-human GHR antibody SS1 was tested in cynomolgus monkeys. A dose-response study was conducted to test for changes in IGF-1, IGFBP-3, and ALS levels following a single dose of SS1. Eight naïve female cynomolgus monkeys were injected intravenously with a single dose of SS1 or negative control human IgG2, in 1×PBS 0.01% Tween™ 20. Two monkeys were dosed with 30 mg/kg SS1, two were dosed with 10 mg/kg SS1, two were dosed with 3 mg/kg SS1, and two were dosed with 30 mg/kg negative control human IgG2Δa on Day 1. […] Serum was also taken from the 30 mg/kg SS1 and negative control treated animals at 864 h post-dose.
Serum samples were analyzed for changes in IGFBP-3 levels compared to baseline using an R&D Systems™ Quantikine™ human IGFBP-3 immunoassay kit (cat. #DGB300).

ALS = assay: Serum ALS levels in cynomolgus monkeys after a single antibody dose; format: in vivo, cynomolgus monkey; conditions: Table 12, cynomolgus monkeys, SS1 3 mg/kg IV single dose
Experimental: as §1
Serum samples were analyzed for changes in ALS levels compared to baseline using a BioVendor™ Human ALS ELISA kit (cat. #RMEE35R).
Six naïve female cynomolgus monkeys were injected either intravenously or subcutaneously with a single dose of […] or negative control human IgG2Δa in 1×PBS 0.01% Tween™ 20. Two monkeys were dosed with 3 mg/kg SS1 intravenously, two were dosed with 3 mg/kg SS1 subcutaneously, and two were dosed with 3 mg/kg negative control human IgG2Δa subcutaneously on Day 1. Serum samples were taken from all animals at the following timepoints: pre-dose, 24 h, 72 h, 120 h, 168 h, 216 h, 264 h, 312 h, 360 h, 408 h, 456 h and 504 h.

B1: SS1: humanized GHR antagonist antibody; VL SEQ ID NO: 7, VH SEQ ID NO: 8; hIgG2Δa heavy chain SEQ ID NO: 134, light chain SEQ ID NO: 135 (antibody)
heavy: EVQLVESGGGLVKPGGSLRLSCAASGFTFSDAWMDWVRQAPGKGLEWVAEIRSKANYHATYYAESVKGRFTISRDDSKNTLYLQMNSLKTEDTAVYYCTLIRDYWGQGTLVTVSSASTKGPSVFPLAPCSRSTSESTAALGCLVKDYFPEPVTVSWNSGALTSGVHTFPAVLQSSGLYSLSSVVTVPSSNFGTQTYTCNVDHKPSNTKVDKTVERKCCVECPPCPAPPVAGPSVFLFPPKPKDTLMISRTPEVTCVVVDVSHEDPEVQFNWYVDGVEVHNAKTKPREEQFNSTFRVVSVLTVVHQDWLNGKEYKCKVSNKGLPSSIEKTISKTKGQPREPQVYTLPPSREEMTKNQVSLTCLVKGFYPSDIAVEWESNGQPENNYKTTPPMLDSDGSFFLYSKLTVDKSRWQQGNVFSCSVMHEALHNHYTQKSLSLSPGK
light: EIVLTQSPGTLSLSPGERATLSCTATSSVSSSYLNWYQQKPGQAPRLLIYSTSNLASGIPDRFSGSGSGTDFTLTISRLEPEDFAVYYCHQYHRSTPTFGGGTKVEIKRTVAAPSVFIFPPSDEQLKSGTASVVCLLNNFYPREAKVQWKVDNALQSGNSQESVTEQDSKDSTYSLSSTLTLSKADYEKHKVYACEVTHQGLSSPVTKSFNRGEC
modifications: Humanized and/or affinity matured antibody sequence
serum IGFBP-3 levels (% change from baseline) (IGFBP-3; SS1 3 mg/kg IV single dose, 24 h post-injection): −18.75 +/− 1.25% | serum IGFBP-3 levels (% change from baseline) (IGFBP-3; SS1 3 mg/kg IV single dose, 48 h post-injection): −22.8 +/− 3.8% | serum IGFBP-3 levels (% change from baseline) (IGFBP-3; SS1 3 mg/kg IV single dose, 72 h post-injection): −36.45 +/− 6.65% | serum IGFBP-3 levels (% change from baseline) (IGFBP-3; SS1 3 mg/kg IV single dose, 96 h post-injection): −37.35 +/− 5.05% | serum IGFBP-3 levels (% change from baseline) (IGFBP-3; SS1 3 mg/kg IV single dose, 120 h post-injection): −38.25 +/− 4.85% | serum IGFBP-3 levels (% change from baseline) (IGFBP-3; SS1 3 mg/kg IV single dose, 144 h post-injection): −46.8 +/− 0.6% | serum IGFBP-3 levels (% change from baseline) (IGFBP-3; SS1 3 mg/kg IV single dose, 192 h post-injection): −32.55 +/− 1.35% | serum IGFBP-3 levels (% change from baseline) (IGFBP-3; SS1 3 mg/kg IV single dose, 312 h post-injection): 22.4 +/− 1.9% | serum IGFBP-3 levels (% change from baseline) (IGFBP-3; SS1 3 mg/kg IV single dose, 336 h post-injection): 28.15 +/− 12.25% | serum IGFBP-3 decrease below baseline (IGFBP-3; SS1 3 mg/kg IV single dose, by 72 hours): about 36% | serum IGFBP-3 decrease below baseline (IGFBP-3; SS1 3 mg/kg IV single dose, by 144 hours): about 47% | serum IGFBP-3 levels (% change from baseline) (IGFBP-3; SS1 10 mg/kg IV single dose, 24 h post-injection): −23.95 +/− 3.35% | serum IGFBP-3 levels (% change from baseline) (IGFBP-3; SS1 10 mg/kg IV single dose, 48 h post-injection): −28.4 +/− 2.9% | serum IGFBP-3 levels (% change from baseline) (IGFBP-3; SS1 10 mg/kg IV single dose, 72 h post-injection): −37.9 +/− 2.4% | serum IGFBP-3 levels (% change from baseline) (IGFBP-3; SS1 10 mg/kg IV single dose, 96 h post-injection): −40.95 +/− 0.35% | serum IGFBP-3 levels (% change from baseline) (IGFBP-3; SS1 10 mg/kg IV single dose, 120 h post-injection): −46.4 +/− 1.1% | serum IGFBP-3 levels (% change from baseline) (IGFBP-3; SS1 10 mg/kg IV single dose, 144 h post-injection): −51.05 +/− 8.85% | serum IGFBP-3 levels (% change from baseline) (IGFBP-3; SS1 10 mg/kg IV single dose, 192 h post-injection): −45.95 +/− 6.35% | serum IGFBP-3 levels (% change from baseline) (IGFBP-3; SS1 10 mg/kg IV single dose, 312 h post-injection): −38.7 +/− 9.6% | serum IGFBP-3 levels (% change from baseline) (IGFBP-3; SS1 10 mg/kg IV single dose, 336 h post-injection): −42.25 +/− 1.85% | serum IGFBP-3 decrease below baseline (IGFBP-3; SS1 10 mg/kg IV single dose, by 72 hours): ~38% | serum IGFBP-3 decrease below baseline (IGFBP-3; SS1 10 mg/kg IV single dose, by 144 hours): ~51% | serum IGFBP-3 levels (% change from baseline) (IGFBP-3; SS1 30 mg/kg IV single dose, 24 h post-injection): −10.6 +/− 4.6% | serum IGFBP-3 levels (% change from baseline) (IGFBP-3; SS1 30 mg/kg IV single dose, 48 h post-injection): −15.75 +/− 9.35% | serum IGFBP-3 levels (% change from baseline) (IGFBP-3; SS1 30 mg/kg IV single dose, 72 h post-injection): −22.95 +/− 16.15% | serum IGFBP-3 levels (% change from baseline) (IGFBP-3; SS1 30 mg/kg IV single dose, 96 h post-injection): −29.4 +/− 13.9% | serum IGFBP-3 levels (% change from baseline) (IGFBP-3; SS1 30 mg/kg IV single dose, 120 h post-injection): −38.15 +/− 9.45% | serum IGFBP-3 levels (% change from baseline) (IGFBP-3; SS1 30 mg/kg IV single dose, 144 h post-injection): −45.7 +/− 11.9% | serum IGFBP-3 levels (% change from baseline) (IGFBP-3; SS1 30 mg/kg IV single dose, 192 h post-injection): −31.05 +/− 16.05% | serum IGFBP-3 levels (% change from baseline) (IGFBP-3; SS1 30 mg/kg IV single dose, 312 h post-injection): −40.65 +/− 5.05% | serum IGFBP-3 levels (% change from baseline) (IGFBP-3; SS1 30 mg/kg IV single dose, 336 h post-injection): −39.45 +/− 0.85% | serum IGFBP-3 decrease below baseline (IGFBP-3; SS1 30 mg/kg IV single dose, by 72 hours): ~23% | serum IGFBP-3 decrease below baseline (IGFBP-3; SS1 30 mg/kg IV single dose, by 144 hours): ~46% | effect on serum IGFBP-3 levels in cynomolgus monkey (IGFBP-3; single IV dose 3, 10 or 30 mg/kg): dose dependently reduces serum IGFBP-3 levels | serum ALS levels (% change from baseline) (ALS; 24 h post-injection): −23.0 +/− 4.0% | serum ALS levels (% change from baseline) (ALS; 48 h post-injection): −41.7 +/− 3.6% | serum ALS levels (% change from baseline) (ALS; 72 h post-injection): −45.4 +/− 0.9% | serum ALS levels (% change from baseline) (ALS; 96 h post-injection): −50.7 +/− 2.3% | serum ALS levels (% change from baseline) (ALS; 120 h post-injection): −48.0 +/− 0.4% | serum ALS levels (% change from baseline) (ALS; 144 h post-injection): −45.5 +/− 8.4% | serum ALS levels (% change from baseline) (ALS; 192 h post-injection): −50.7 +/− 8.8%

Source: patent US9249224B2 (RINAT NEUROSCIENCE CORP., priority 2011, dated 2016)
